The values that follow come from patent US7259000B2, “Polynucleotides encoding chimeric chemokine receptors” (Bristol-Myers Squibb Company, priority 2003, dated 2007).

In experiment [1] the target is T1, CCR3/2 chimera (Homo sapiens, UniProt P51677).
T1 construct: The total length of the CCR3/2 chimeric molecule described herein is 356 amino acids; CCR2B cytoplasmic tail (fusion partner replacing the CCR3 C terminus); expressed in transfected cells
T1 sequence (P51677 with tags, fused parts or gaps): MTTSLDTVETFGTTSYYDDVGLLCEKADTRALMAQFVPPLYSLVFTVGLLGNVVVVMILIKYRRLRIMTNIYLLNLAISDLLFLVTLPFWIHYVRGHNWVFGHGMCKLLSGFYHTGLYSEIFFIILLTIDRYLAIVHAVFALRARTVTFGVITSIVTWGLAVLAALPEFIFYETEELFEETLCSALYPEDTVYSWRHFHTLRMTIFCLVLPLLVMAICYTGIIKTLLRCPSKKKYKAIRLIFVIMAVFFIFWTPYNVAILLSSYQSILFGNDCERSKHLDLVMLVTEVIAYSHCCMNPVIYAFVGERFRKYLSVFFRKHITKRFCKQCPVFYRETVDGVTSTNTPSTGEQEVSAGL
Put plainly: 125I-eotaxin binding assay on CHO CCR3/2 clone 5.5 cells. As for the experimental part: (§1) In order to compare the ability of cells expressing chimeric human CCR3/2 molecules to that of cells expressing endogenous human CCR3 to bind eotaxin, a binding assay was performed. Depending upon the questions being asked, the cells in question were either human or mouse eosinophils, CHO-K1 cells expressing recombinant CCR3 or CCR3/2, parental CHO-K1 cells or other cell types. All assay steps were conducted at room temperature. Multiscreen assay plates (#MABVN1250, Millipore Inc., Marlborough, Mass.) were incubated with 100 μl/well of blocking solution (7.5 μg/ml protamine in PBS) to block non-specific binding. After 20 minutes, the blocking solution was removed and replaced with 100 μl of binding buffer, (RPMI 1640 (Life Technologies, Grand Island, N.Y.) containing 0.1% bovine serum albumin and 20 mM HEPES buffer) and incubated for at least an additional 10 minutes.
(§2) When ready to use plate(s), the following procedure was employed. Remove the binding buffer and add the following to the well types indicated:
(§3) to TOTAL binding wells add 50 μl of binding buffer;
(§4) to NON-SPECIFIC binding wells add 50 μl of unlabeled human eotaxin to 100 nM and 1000 nM final concentration (recombinant human eotaxin—#320-EO/CF, R&D Systems, Minneapolis, Minn.) in 50 μl binding buffer; […]
(§5) Binding data were analyzed using Microsoft EXCEL and then graphed using GRAPHPAD PRISMT™. […]

For experiment [2], the target named is T2, chimeric CCR3/2 receptor (Homo sapiens, UniProt P51677).
T2 construct: The total length of the CCR3/2 chimeric molecule described herein is 356 amino acids; CCR2B cytoplasmic tail (fusion partner replacing the CCR3 C terminus); expressed in transfected cells
T2 sequence (P51677 with tags, fused parts or gaps): T1 sequence (P51677 with tags, fused parts or gaps)
Put plainly: phospho-ERK western blot after eotaxin stimulation of CHO CCR3/2 clone 5.5 cells. In kind it is cell-based. The conditions noted are these: nanomolar eotaxin. The source says:
Part of the downstream signalling cascade involves the activity of kinases (proteins that add phosphate groups to specific residues in cellular proteins, thereby causing them to take on new activities and cellular roles). In the present Example, the phosphorylation of Erk (a member of a protein kinase signalling cascade) is considered to be an indication that binding of eotaxin at the cell surface is recognized by the cell signalling machinery that lies within the cytoplasm and nucleus.
Thus, the present invention further provides that a chimeric chemokine receptor (e.g., the chimeric CCR3/2 receptor) when expressed in cells is capable of downstream signalling when binding to its cognate ligand (e.g., eotaxin). Such downstream signalling involves the MAP kinase pathway, more specifically, the phosphorylation of Erk1 and Erk2 subsequent to binding of eotaxin by either CCR3 or CCR3/2.
Analysis of cell stimulation for phospho-ERK analysis by western blotting was done as previously described (Scherle et al., (1998) J. Immunol. 161(10):5681-86) with the exception that cells were specifically stimulated by exposure to eotaxin (nanomolar exposures to eotaxin listed on the bottoms of FIGS. 7A and 7B) instead of the more generic stimulant lipopolysaccharide as described in Sherle et al. (Scherle et al., (1998) J. Immunol. 161(10):5681-86).
For orientation: Immunoblotting shows a protein as a band on a membrane.

The target of experiment [3] is T3, CCR3 (Homo sapiens, UniProt P51677).
T3 construct: cells expressing endogenous human CCR3; endogenous in cells; host or cells: native human eosinophils
T3 sequence (P51677 1-355): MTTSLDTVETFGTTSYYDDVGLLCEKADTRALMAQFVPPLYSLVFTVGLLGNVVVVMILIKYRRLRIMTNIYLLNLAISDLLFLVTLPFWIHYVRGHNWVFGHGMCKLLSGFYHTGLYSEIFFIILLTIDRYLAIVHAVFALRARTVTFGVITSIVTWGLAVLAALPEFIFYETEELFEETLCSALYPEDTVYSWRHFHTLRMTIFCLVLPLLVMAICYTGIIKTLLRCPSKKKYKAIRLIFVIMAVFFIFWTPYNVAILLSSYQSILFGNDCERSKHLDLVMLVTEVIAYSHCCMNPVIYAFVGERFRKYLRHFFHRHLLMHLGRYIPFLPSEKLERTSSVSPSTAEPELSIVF
The experiment is described as follows: 125I-eotaxin binding assay on human eosinophils. The conditions noted are these: native human eosinophils; 0.15 nM 125I-labeled human eotaxin; room temperature. As for the experimental part:
as §1, §2, §3, §4, §5

“Also recorded” adds a separate entry of the source.

With “eotaxin: recombinant human eotaxin, chemokine peptide ligand of CCR3 (R&D Systems #320-EO/CF; 125I-labeled form from Perkin Elmer)”, the eotaxin binding entry in experiment [1] (CHO cells expressing human CCR3/2) is listed as “high levels of specific eotaxin binding; also recorded: high affinity”. Besides, the “Erk phosphorylation (downstream signalling) on exposure to eotaxin” value in experiment [2] was “able to transmit a signal”.

`C[C@@H](NC(=O)Nc1cccc(-c2nnnn2C)c1)[C@@H](O)CN1CCC[C@@H](Cc2ccc(F)cc2)C1` [Compound 1, N-{(1R,2S)-3-[(3S)-3-(4-fluorobenzyl)-1-piperidinyl]-2-hydroxy-1-methylpropyl}-N′-[3-(1-methyl-1H-tetraazol-5-yl)phenyl]urea]: the “competition with labeled eotaxin for binding (drug inhibition curve)” value is on record as “comparable” in experiment [3] and “comparable; also recorded: compete with eotaxin for binding” in experiment [1] (CHO CCR3/2 clone 5.5, 0.15 nM 125I-labeled human eotaxin, room temperature).
